In publication PMC3720604:

Biological target: endogenous CK2β (human (endogenous in HeLa)) (UniProt P67870)
Assay: co-IP; lysates (200 ug) of HeLa cells transfected with CK2α-HA or CK2α′-HA; consecutive rounds of immunoprecipitation with anti-CK2β sera and protein A sepharose, or mock control; supernatant and immunoprecipitate blotted for HA and CK2β; NP-40 alternative lysis buffer, 150 mM NaCl, 50 mM Tris pH 7.5

Sequence of CK2α′-HA (P19784 whole entry): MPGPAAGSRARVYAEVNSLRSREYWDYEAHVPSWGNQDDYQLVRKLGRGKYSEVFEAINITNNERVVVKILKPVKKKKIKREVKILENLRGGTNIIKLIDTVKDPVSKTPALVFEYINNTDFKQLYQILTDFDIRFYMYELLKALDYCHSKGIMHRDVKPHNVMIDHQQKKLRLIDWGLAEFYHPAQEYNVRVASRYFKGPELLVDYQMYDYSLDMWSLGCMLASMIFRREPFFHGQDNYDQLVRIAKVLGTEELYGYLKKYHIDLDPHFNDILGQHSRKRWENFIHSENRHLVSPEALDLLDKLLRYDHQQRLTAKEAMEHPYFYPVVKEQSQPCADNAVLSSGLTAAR
Sequence of UniProt P67870 (P67870 whole entry): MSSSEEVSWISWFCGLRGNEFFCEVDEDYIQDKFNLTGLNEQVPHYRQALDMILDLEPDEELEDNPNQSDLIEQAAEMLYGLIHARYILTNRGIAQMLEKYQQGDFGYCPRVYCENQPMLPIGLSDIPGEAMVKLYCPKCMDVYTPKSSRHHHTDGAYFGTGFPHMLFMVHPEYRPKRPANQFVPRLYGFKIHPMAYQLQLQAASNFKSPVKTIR

percent depleted from the lysate by CK2β immunoprecipitation: > 90%
Substance: CK2α′-HA (from UniProt P19784 1-350) (enzyme)
